# Results reported in patent publication US20220289837A1, “Cystic Fibrosis Transmembrane Conductance Regulator Stabilizing Agents” (VIB VZW, priority 2019, published 2022).
# B1: G3a: non-stabilizing nanobody, SEQ ID NO:50, recognizes the structurally diverse region of NBD1 (protein)
# VHH: QVQLQESGGGLVQAGGSLRLSCTASGRAFSWYVMGWFRQAPGKEREFVATVSGNGSRRDYADSVKGRFTISRDNAKNTVYLQMNSLKPEDTAVYYCAASSTYYYTDPEKYDYWGQGTQVTVSS
# modifications: G3a Nanobody
# B2: T2a: NBD1-specific CFTR-stabilizing nanobody, SEQ ID NO:3, binds epitope 1 (protein)
# VHH: QVQLQESGGGLVQAGGSLRLSCAASGSIFRIDAMGWYRQAPGKQRELVAHSTSGGSTDYADSVKGRFTISRDNAKNTVYLQMNSLKPEDTAVYYCNADVRTRWYASNNYWGQGTQVTVSS
# modifications: T2a Nanobody amino acid sequence
# B3: D12: NBD1-specific CFTR-stabilizing nanobody, SEQ ID NO:2, binds epitope 1 (protein)
# VHH: QVQLQESGGGLVQAGSSLRLACAATGSIRSINNMGWYRQAPGKQRGMVAIITRVGNTDYADSVKGRFTISRDNAKNTVYLQMNSLKPEDTATYYCHAEITEQSRPFYLTDDYWGQGTQVTVSS
# modifications: D12 Nanobody amino acid sequence
# B4: T27: NBD1-specific CFTR-stabilizing nanobody, SEQ ID NO:4, binds epitope 1 (protein)
# VHH: QVQLQESGGGLEQPGGSLRLSCATSGVIFGINAMGWYRQAPGKQRELVATFTSGGSTNYADFVEGRFTISRDNAKNTVYLQMNGLRPEDTAVYYCHATVVVSRYGLTYDYWGQGTQVTVSS
# modifications: T27 Nanobody amino acid sequence
# B5: T8: nanobody, SEQ ID NO:7, binds epitope 2 including F508, stabilizes WT CFTR but not F508del (protein)
# VHH: QVQLQESGGGLVQPGGSLRLSCAASGSTSSINAMGWYRQAPGKQREPVAISSSGGDTRYAEPVKGRFTISRDNAQNKVYLQMNSLKPEDTAVYYCWLNWGRTSVNSWGQGTQVTVSS
# modifications: T8 Nanobody amino acid sequence
# Tests used:
# wt-CFTR [1] = target: T1, wt-CFTR (Homo sapiens, UniProt P13569); assay: ATPase activity of wt-CFTR; assay type: biochemical; design: His10-SUMO* (N); FLAG; EGFP (C); made in house; host or cells: HEK 293 cell line D165; settings: saturating concentration of nanobody
# Description: To determine effect of nanobodies on functional stability, aliquots of purified wt-CFTR (25 nM) were preincubated 1 h on ice with 1 μM nanobody (or 15 μM, in the case of G3a). Substrate α-[32P]-ATP (2 μl) was then added for measurement of ATPase activity as previously described^[48]. Then, nanobody protection against thermal denaturation was determined after a 30 min thermal challenge of the protein complexes followed by an assay of residual ATPase.
# F508del-2PT-NBD1 = target: T2, F508del-2PT-NBD1 (Homo sapiens, UniProt P13569, A534P/DEL508-508/I539T/S492P/V470M); assay: NBD1 ELISA dose-response, nanobody binding to immobilized F508del-2PT-NBD1; settings: for effect of F508del mutation on binding: F508del-2PT-NBD1 versus 2PT-NBD1
# T2 construct: His6-SUMO (N, cleaved yes); made in house; host or cells: Escherichia coli BL21(DE3) pLysS
# Description: (§1) For dose-response assays, Nunc MaxiSorp 96-well plates (ThermoScientific), were coated with 5 μg/ml NeutrAvidin Biotin-Binding protein (ThermoScientific) overnight at 4° C. and blocked 2 h at room temperature (RT) with 2% milk in phosphate-buffered saline (PBS). Each new reagent addition was preceded by three washes with 200 μl of NBD1 buffer (20 mM HEPES pH 7.5, 150 mM NaCl, and 10% (w/v) glycerol, 10% (w/v) ethylene glycol, 2 mM ATP, 3 mM MgCl2). Then, biotinylated purified NBD1 proteins at 5 μg/ml were immobilized 30 min at RT followed by 1 h RT incubation with 100 μl various concentrations (0-20 μg/ml) of purified nanobodies. Signal detection was followed using His-tag specific antibody (Invitrogen, catalogue number: MA1-135, 1:3000 dilution) to detect the nanobodies and secondary antibody anti-mouse coupled to horse radish peroxidase (HRP) (Millipore, catalogue number: AP308P, 1:5000 dilution). 50 μl of 1-Step UltraTMB-ELISA (ThermoScientific) was used as a substrate for the peroxidase and intensity of the reaction was proportional to absorbance measured at 450 nm with SynergyMx (BioTek) after addition of 50 μl H2SO4 at 1M.
# Affinity constants (KD) and thermodynamic parameters from ITC experiments were determined using one-site binding model with MicroCal Origin 7.0 software (Origin Lab Corp.). Dose response ELISA curves of each Nb binding to either isolated NBD1 or purified FL-CFTR were fitted using the sigmoidal dose-response equation from GraphPad Prism 3. DSC data were analyzed with the MicroCal Origin 7.0 software (Origin Lab Corp.), from which the unfolding temperature (Tm) was obtained.
# parental BHK-21 cells = assay: Flow cytometry on parental BHK-21 cells; assay type: cell-based, hamster; settings: compared to negative control nanobody
# Description: (§2) Parental BHK-21 cells (ATCC; CCL-10) and cells stably overexpressing human wt-CFTR^[43,44,47] or 2PT-F508del-CFTR, as described above, were permeabilized with 0.01% n-Dodecyl-β-D-Maltopyranoside β-DDM—Inalco) at least for 2 h on ice. In the meantime, cells were incubated with 50 μg/ml nanobodies and DRAQ7 (0.3 μM—Biostatus) to monitor the permeabilization state. Nanobody binding was detected by using His-tag specific antibody (Invitrogen, catalogue number MA1-135, 1 μg/ml) or Myc-tag specific antibody (Invitrogen, catalogue number 13-2500, 2 μg/ml) and then anti-mouse-Alexa Fluor 488 (Invitrogen, catalogue number A11001, 1.3 μg/ml) at least for 30 min on ice. Cells were washed one time between each step by centrifugation (200×g for 5 min at 4° C.). All incubations (100 μl) and washes (1.5 ml) were performed in PBS with 6% fetal bovine serum (FBS) and 0.01%13-DDM on ice. Cells fluorescence was measured with Gallios Flow Cytometer (Beckman Coulter). Data were analyzed with Kaluza software.
# wt-CFTR [2] = target: T1, wt-CFTR; assay: Flow cytometry on permeabilized BHK-21 cells overexpressing wt-CFTR; assay type: cell-based; design: expressed in transfected cells; settings: compared to negative control nanobody
# Description: as §2
# 2PT-NBD1 = target: T3, 2PT-NBD1 (Homo sapiens, UniProt P13569, A534P/I539T/S492P/V470M); assay: Thermal shift assay (DSF) of 2PT-NBD1; assay type: binding; settings: versus isolated 2PT-NBD1
# T3 construct: 2PT-NBD1 mutants (residues 387-646 containing the mutations S492P, A534P, I539T); His6-SUMO (N, cleaved yes); made in house; host or cells: Escherichia coli BL21(DE3) pLysS
# Description: Solutions of either 2PT-NBD1 or F508del-2PT-NBD1 (10 μM final concentration), nanobodies (30 μM final concentration) and 2.5× or 5× concentrated SYPRO Orange Protein Stain (Molecular Probes) diluted in 20 mM HEPES pH 7.5, 150 mM NaCl, 3 mM MgCl2, 2 mM ATP and 10% (w/v) glycerol, 10% (w/v) ethylene glycol, were added to the wells of a 96-well PCR plates type BR white (VWR) in a final volume of 25 μl. Plates were sealed with EasySeal sheets (Molecular dimensions) and spun 2 min at 900× g. SYPRO orange fluorescence was monitored in CFX96 Touch Real-Time PCR Detection System (Bio-Rad) using FRET scan mode from 10 to 80° C. in increments of either 1° C. or 0.2° C.
# 2PT-NBD1-RE = assay: NBD1 ELISA dose-response, binding to 2PT-NBD1-RE; design: species or system human; settings: for binding to 2PT-NBD1-RE: construct containing the regulatory extension
# Excerpt: Human ΔRI-NBD1 (residues 387-646, A405-436; SEQ ID NO:59) construct was obtained from Arizona State University Plasmid Repository (clone id: 287374), 2PT-NBD1 mutants (residues 387-646 containing the mutations S492P, A534P, I539T; SEQ ID NO:58), 2PT-NBD1-RE (2PT-NBD1 with residues 387-678) were constructed using WT-NBD1 construct from ASU (clone id: 287401). Mutations were introduced by PCR using PfuUltra high-fidelity DNA polymerase from Agilent (catalogue number: 600382) and sequences were confirmed by automated DNA sequencing (UNC-CH Genome Analysis Facility). Proteins were expressed as N-terminal, His6-SUMO fusion proteins in Escherichia coli (BL21(DE3) pLysS cells, Millipore) as described in [5,11] with the following modifications. Cells were lysed using a French press and recombinant proteins were purified by nickel ion affinity chromatography (HisTrap HP, 1 ml—GE Healthcare). The His6-SUMO tag was removed using Ulp1 protease at 1/100 weight/weight ratio during 20 min on ice. […] Protein concentration was determined using Coomassie Plus (Bradford) Assay Kit (Thermo Scientific).
# as §1
# T1 sequence (P13569 whole entry): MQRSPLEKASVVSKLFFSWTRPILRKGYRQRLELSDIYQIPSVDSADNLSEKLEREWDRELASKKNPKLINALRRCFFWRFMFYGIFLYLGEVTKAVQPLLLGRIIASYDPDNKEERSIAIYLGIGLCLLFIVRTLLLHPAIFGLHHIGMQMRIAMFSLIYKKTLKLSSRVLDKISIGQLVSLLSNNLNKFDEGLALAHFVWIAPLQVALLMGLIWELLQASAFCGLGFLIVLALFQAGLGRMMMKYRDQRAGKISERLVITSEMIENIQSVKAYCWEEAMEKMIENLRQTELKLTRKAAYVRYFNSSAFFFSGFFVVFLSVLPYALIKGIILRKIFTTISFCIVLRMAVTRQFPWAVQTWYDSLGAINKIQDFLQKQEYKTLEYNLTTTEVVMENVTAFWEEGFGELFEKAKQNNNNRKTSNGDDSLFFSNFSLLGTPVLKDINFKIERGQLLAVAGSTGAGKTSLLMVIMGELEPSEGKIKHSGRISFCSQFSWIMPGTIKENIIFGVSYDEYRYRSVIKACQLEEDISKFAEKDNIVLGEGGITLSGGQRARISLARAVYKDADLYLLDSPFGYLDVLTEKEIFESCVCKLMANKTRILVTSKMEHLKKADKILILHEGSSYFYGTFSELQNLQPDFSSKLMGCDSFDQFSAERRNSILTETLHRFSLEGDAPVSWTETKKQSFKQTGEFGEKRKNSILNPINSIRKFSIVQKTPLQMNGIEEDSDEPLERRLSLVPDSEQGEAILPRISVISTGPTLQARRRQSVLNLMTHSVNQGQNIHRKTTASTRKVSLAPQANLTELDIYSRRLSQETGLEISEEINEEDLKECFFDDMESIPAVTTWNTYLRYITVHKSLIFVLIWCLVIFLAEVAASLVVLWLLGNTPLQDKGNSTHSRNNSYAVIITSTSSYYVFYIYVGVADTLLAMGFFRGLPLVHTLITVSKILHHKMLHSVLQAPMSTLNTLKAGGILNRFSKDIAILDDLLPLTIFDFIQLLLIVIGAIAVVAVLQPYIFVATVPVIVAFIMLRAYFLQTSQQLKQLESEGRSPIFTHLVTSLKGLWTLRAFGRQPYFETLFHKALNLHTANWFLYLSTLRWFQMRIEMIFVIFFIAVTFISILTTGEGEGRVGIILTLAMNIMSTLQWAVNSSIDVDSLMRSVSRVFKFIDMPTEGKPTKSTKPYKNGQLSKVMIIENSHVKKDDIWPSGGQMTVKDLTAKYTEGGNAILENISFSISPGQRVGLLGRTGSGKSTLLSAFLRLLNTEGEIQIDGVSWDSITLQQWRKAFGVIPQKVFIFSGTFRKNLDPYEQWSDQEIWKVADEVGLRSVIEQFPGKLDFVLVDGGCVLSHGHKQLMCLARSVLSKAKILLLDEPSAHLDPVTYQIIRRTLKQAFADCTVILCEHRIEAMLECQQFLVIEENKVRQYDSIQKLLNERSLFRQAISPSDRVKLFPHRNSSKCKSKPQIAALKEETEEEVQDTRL
# Chain of 2PT-NBD1-RE (P13569 387-678 S492P/A534P/I539T): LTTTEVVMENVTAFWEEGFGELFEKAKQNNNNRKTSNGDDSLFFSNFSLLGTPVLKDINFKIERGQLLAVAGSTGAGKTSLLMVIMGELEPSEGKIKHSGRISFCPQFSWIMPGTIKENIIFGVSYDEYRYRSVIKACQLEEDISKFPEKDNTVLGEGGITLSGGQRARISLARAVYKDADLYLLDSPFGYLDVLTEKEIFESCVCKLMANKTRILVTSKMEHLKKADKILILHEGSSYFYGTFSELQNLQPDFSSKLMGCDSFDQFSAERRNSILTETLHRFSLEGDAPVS
# T3 sequence (P13569 388-646 V470M/S492P/A534P/I539T): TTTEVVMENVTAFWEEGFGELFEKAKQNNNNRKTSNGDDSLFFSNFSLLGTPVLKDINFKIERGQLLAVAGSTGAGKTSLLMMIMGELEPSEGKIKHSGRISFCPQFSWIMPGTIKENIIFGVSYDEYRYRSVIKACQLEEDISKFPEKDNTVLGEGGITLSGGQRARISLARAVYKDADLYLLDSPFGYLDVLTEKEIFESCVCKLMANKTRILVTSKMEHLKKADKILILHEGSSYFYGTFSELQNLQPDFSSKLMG
# T2 sequence (P13569 with tags, fused parts or gaps V470M/S492P/DEL508-508/A534P/I539T limits assumed): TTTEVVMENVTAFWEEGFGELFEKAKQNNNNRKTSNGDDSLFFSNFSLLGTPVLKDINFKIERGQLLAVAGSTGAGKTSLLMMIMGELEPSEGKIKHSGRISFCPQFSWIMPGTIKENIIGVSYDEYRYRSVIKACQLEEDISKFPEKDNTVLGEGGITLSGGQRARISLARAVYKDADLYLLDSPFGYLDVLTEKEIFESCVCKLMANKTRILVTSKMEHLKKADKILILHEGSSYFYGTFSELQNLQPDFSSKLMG
molecule,measurement,setting,value
B1,ATPase activity,wt-CFTR [1],did not affect
same,EC50 of binding to F508del-2PT-NBD1,F508del-2PT-NBD1; immobilized F508del-2PT-NBD1,weaker binding potency
same,labelling of parental BHK-21 cells,parental BHK-21 cells,no difference in labelling
same,labelling of BHK-21 cells overexpressing wt-CFTR,wt-CFTR [2],increased labelling
same,increase of Tm of 2PT-NBD1,2PT-NBD1,did not induce a significant shift
B2,ATPase activity,wt-CFTR [1],50 % of PKA-phosphorylated CFTR
same,effect of F508del mutation on binding,F508del-2PT-NBD1,not affected
same,labelling of parental BHK-21 cells,parental BHK-21 cells,no difference in labelling
same,labelling of BHK-21 cells overexpressing wt-CFTR,wt-CFTR [2],increased labelling
same,apparent EC50 on 2PT-NBD1-RE compared to 2PT-NBD1,2PT-NBD1-RE,decrease in apparent EC50
same,binding to 2PT-NBD1-RE,2PT-NBD1-RE,high-affinity binding
same,increase of Tm of 2PT-NBD1,2PT-NBD1,11.2 °C
B3,ATPase activity,wt-CFTR [1],50 % of PKA-phosphorylated CFTR
same,effect of F508del mutation on binding,F508del-2PT-NBD1,not affected
same,labelling of parental BHK-21 cells,parental BHK-21 cells,no difference in labelling
same,labelling of BHK-21 cells overexpressing wt-CFTR,wt-CFTR [2],increased labelling
same,apparent EC50 on 2PT-NBD1-RE compared to 2PT-NBD1,2PT-NBD1-RE,decrease in apparent EC50
same,binding to 2PT-NBD1-RE,2PT-NBD1-RE,high-affinity binding
same,increase of Tm of 2PT-NBD1,2PT-NBD1,13.8 °C
B4,ATPase activity,wt-CFTR [1],30 % of PKA-phosphorylated CFTR
same,effect of F508del mutation on binding,F508del-2PT-NBD1,not affected
same,labelling of parental BHK-21 cells,parental BHK-21 cells,no difference in labelling
same,labelling of BHK-21 cells overexpressing wt-CFTR,wt-CFTR [2],increased labelling
same,apparent EC50 on 2PT-NBD1-RE compared to 2PT-NBD1,2PT-NBD1-RE,decrease in apparent EC50
same,binding to 2PT-NBD1-RE,2PT-NBD1-RE,high-affinity binding
same,increase of Tm of 2PT-NBD1,2PT-NBD1,11.9 °C
B5,ATPase activity,wt-CFTR [1],60 % of PKA-phosphorylated CFTR
same,effect of F508del mutation on binding,F508del-2PT-NBD1,drastically affected
same,labelling of parental BHK-21 cells,parental BHK-21 cells,no difference in labelling
same,labelling of BHK-21 cells overexpressing wt-CFTR,wt-CFTR [2],increased labelling
same,increase of Tm of 2PT-NBD1,2PT-NBD1,9.3 °C
